Data reported in US20240376151A1, “STAPLED PEPTIDES AND METHODS THEREOF” (FOG PHARMACEUTICALS, INC., priority 2022, published 2024).

Target: T1, RNF31 UBA domain (Homo sapiens, UniProt Q96EP0)
T1 construct: RNF31 UBA domain protein (residues 480-639) with N-terminal Thioredoxin-TEV-6×his-yBBr-3C tags; Thioredoxin (N, cleaved yes); made in house; host or cells: E. coli BL21 (DE3) pLysS
T1 sequence (Q96EP0 480-639): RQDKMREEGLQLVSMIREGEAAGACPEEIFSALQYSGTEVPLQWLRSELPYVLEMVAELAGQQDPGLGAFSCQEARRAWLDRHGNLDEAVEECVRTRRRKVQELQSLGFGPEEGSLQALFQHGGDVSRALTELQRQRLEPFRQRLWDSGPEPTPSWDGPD
Assay: Phage Library Screening with NGS, RNF31 UBA domain
Assay type: binding
Settings: for Phage library screen NGS readout, Target Concentration 10 / Phage library screen NGS readout, Target Concentration 30 / Phage library screen NGS readout, Target Concentration 100 / Phage library screen NGS readout, Target Concentration 300 / Phage library screen NGS readout, Target Concentration 1000: RNF31 UBA domain cluster C46; for Phage library screen NGS readout, BLANK: cluster C46; for phage screen NGS read-out at Target Concentration 10 / phage screen NGS read-out at Target Concentration 30 / phage screen NGS read-out at Target Concentration 100 / phage screen NGS read-out at Target Concentration 300: no competitor

[1] = target concentration 1000, first column
[2] = target concentration 1000, second column

Phage library screen NGS readout, Target Concentration 10	Phage library screen NGS readout, Target Concentration 30	Phage library screen NGS readout, Target Concentration 100	Phage library screen NGS readout, Target Concentration 300	Phage library screen NGS readout, Target Concentration 1000 [1]	Phage library screen NGS readout, Target Concentration 1000 [2]	Phage library screen NGS readout, BLANK (column 1 of 5)	Phage library screen NGS readout, BLANK (column 2 of 5)	Phage library screen NGS readout, BLANK (column 3 of 5)	Phage library screen NGS readout, BLANK (column 4 of 5)	Phage library screen NGS readout, BLANK (column 5 of 5)	phage screen NGS read-out at Target Concentration 10	phage screen NGS read-out at Target Concentration 30	phage screen NGS read-out at Target Concentration 100	phage screen NGS read-out at Target Concentration 300	Sequence
2	19	49	95	104	111	0	0	1	0	0					DPAQLNCLSAAMYCALY
											0	0	1	4	DPAFSACVYAAYMCNQD
											0	0	1	8	DPASIHCAAAALWCDIL
											1	0	0	0	DPADLLCHMAAQNCLYR
											0	1	0	2	DPAAFVCEMAANDCLYT
0	0	8	13	16	13	0	0	0	1	0					DPAASQCFSAAVYCAWI
											0	0	7	29	DPAFSTCVYAAIICNDT
6	49	132	200	199	246	0	1	2	0	1					DPAALACLSAAVYCEMY
												210	40	88	DPAQRDCFSAAVYCSFL
											0	0	1	3	DPATQHCLAAAMWCHLI
											1	0	2	20	DPAFSQCVYAAFFCREI
5	17	122	255	247	297	0	0	1	0	0					DPASASCLSAAIYCSMF
											0	0	4	10	DPAEWICRMAAMNCLYQ (Ac-DPAEWICRMAAMNCLYQ-NH2; not fully specified (bridges); cysteine pairing not given here)
											0	0	1	8	DPAFSTCVYAAVFCQNT
											0	0	3	19	DPAFSTCIYAAVMCMDQ
											0	0	1	14	DPAREHCDSAAIFCYIL
0	0	6	10	9	10	0	0	0	0	0					DPALQSCLSAAVYCTVS
											0	0	0	2	DPAFSQCIYAAFQCDMQ
											0	0	0	8	DPARYHCEAAAAWCELL
											1	2	3	9	DPAFSECVYAAFSCSWI
8	39	131	239	297	291	0	1	1	0	0					DPALTNCFSAAVYCAMF
											0	1	0	4	DPAQWVCHMAAMNCLYQ
											1	0	6	35	DPASSHCQSAAIWCYLM
											0	0	0	1	DPAFSLCVYAAVECDHA
											1	15	38	77	DPASMVCLSAAVYCAMH
											0	0	0	0	DPASIICMLAADNCLYE
